Source: the supplement of paper PMC10065799, “High-throughput profiling of sequence recognition by tyrosine kinases and SH2 domains using bacterial peptide display” (eLife, 2023)

Experiments:
FGFR1 = FGFR1 (UniProt P11362); experiment: phosphorylation enrichment, bacterial display (enrichment ratio); higher = better substrate or ligand; peptides without Tyr show the background
Fes = Fes (UniProt P07332); experiment: as above
FGFR3 = FGFR3 (UniProt P22607); experiment: as above
MERTK = MERTK (UniProt Q12866); experiment: as above
Chain of MERTK (Q12866 whole entry, looked up): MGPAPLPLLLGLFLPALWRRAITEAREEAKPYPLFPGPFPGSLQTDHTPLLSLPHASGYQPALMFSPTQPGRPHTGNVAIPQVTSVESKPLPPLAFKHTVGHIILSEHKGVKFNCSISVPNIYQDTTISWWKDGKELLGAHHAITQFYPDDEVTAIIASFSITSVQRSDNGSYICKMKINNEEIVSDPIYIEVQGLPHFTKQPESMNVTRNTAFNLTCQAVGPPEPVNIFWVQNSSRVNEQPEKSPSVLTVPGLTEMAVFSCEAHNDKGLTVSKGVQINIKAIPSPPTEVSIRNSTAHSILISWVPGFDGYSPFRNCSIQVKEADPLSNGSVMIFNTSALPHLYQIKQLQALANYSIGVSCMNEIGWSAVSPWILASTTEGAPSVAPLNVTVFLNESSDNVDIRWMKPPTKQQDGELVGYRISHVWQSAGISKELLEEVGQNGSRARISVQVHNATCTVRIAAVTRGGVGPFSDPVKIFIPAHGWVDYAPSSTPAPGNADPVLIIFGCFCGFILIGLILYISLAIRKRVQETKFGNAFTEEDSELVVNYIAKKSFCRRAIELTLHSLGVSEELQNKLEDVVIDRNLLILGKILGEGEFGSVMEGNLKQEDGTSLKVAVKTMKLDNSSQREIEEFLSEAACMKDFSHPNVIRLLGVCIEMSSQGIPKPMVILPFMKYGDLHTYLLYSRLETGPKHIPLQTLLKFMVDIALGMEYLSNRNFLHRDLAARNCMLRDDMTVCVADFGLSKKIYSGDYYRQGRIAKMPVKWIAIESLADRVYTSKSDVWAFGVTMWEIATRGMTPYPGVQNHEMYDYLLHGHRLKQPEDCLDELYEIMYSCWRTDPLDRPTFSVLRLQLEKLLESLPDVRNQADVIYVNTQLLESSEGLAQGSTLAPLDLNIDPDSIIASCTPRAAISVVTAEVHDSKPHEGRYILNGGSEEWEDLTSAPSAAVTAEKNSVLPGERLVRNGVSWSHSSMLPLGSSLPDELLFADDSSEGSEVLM

EPHB1 = EPHB1 (UniProt P54762); experiment: as above
Chain of EPHB1 (P54762 whole entry, looked up): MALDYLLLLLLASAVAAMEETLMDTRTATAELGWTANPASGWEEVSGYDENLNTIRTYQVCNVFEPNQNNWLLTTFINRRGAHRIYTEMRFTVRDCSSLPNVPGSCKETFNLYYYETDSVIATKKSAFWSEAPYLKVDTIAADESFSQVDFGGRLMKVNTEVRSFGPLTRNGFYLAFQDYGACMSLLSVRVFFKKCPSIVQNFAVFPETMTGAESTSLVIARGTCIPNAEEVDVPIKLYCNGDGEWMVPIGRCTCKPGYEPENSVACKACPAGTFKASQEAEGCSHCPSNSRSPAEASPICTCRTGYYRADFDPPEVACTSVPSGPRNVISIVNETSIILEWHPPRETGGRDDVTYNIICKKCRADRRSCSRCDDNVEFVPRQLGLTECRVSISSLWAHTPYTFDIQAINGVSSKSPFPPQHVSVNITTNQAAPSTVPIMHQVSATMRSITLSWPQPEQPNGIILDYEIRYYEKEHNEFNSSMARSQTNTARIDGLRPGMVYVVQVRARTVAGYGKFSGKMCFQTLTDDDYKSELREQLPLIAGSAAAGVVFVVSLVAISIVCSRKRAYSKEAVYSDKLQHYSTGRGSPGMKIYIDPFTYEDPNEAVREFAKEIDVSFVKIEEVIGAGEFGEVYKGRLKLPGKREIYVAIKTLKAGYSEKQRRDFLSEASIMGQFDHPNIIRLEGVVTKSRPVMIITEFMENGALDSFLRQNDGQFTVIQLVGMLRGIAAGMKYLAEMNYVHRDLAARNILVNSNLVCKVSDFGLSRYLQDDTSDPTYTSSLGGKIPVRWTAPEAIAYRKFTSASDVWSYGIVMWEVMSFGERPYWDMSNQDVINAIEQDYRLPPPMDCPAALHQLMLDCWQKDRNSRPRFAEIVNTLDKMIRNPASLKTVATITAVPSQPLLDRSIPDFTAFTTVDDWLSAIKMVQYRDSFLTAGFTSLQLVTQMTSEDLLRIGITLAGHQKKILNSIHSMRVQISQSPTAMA

c-Src = experiment: as above
Hck = Hck (UniProt P08631); experiment: as above
Chain of Hck (P08631 whole entry, looked up): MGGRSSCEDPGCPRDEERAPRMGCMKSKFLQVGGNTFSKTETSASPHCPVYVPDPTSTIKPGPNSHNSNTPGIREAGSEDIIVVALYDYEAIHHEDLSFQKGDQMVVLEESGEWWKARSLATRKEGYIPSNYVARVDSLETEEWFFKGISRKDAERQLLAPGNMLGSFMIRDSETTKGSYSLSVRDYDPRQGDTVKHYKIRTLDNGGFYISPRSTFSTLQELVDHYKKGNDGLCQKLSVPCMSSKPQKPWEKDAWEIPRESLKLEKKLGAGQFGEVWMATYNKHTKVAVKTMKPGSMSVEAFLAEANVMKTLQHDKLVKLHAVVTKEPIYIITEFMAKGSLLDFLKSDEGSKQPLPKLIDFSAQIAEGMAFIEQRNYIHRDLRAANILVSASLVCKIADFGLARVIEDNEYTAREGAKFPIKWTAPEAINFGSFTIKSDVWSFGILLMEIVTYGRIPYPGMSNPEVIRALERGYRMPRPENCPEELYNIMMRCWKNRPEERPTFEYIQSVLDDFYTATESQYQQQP

Jak2 = Jak2 (UniProt O60674); experiment: as above
Fyn = Fyn (UniProt P06241); experiment: as above
Chain of Fyn (P06241 whole entry, looked up): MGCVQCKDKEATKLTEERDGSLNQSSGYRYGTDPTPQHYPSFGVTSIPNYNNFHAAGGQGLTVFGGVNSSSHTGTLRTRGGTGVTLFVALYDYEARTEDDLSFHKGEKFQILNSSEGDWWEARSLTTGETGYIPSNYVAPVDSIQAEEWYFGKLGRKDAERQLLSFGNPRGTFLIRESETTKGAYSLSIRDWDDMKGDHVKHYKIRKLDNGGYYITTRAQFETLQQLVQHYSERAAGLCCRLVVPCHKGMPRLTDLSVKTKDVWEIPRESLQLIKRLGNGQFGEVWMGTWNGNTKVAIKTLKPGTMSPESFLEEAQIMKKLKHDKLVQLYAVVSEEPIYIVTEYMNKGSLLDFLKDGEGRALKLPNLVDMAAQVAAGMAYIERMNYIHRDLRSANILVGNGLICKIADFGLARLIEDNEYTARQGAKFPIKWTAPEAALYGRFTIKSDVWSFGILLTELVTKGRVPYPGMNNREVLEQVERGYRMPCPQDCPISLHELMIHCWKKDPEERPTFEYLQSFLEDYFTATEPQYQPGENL

EPHB2 = EPHB2 (UniProt P29323); experiment: as above
AncSZ = experiment: as above
Fer (mouse) = experiment: as above
c-Abl (mouse) = experiment: as above
c-Src SH2 = experiment: SH2 binding enrichment of the phosphorylated peptide, bacterial display (enrichment ratio); higher = better substrate or ligand; peptides without Tyr show the background
SHP2-C SH2 = experiment: as above
Grb2 SH2 = Grb2 SH2 (UniProt P62993); experiment: as above
Chain of Grb2 SH2 (P62993 whole entry, looked up, the tested form may be a part): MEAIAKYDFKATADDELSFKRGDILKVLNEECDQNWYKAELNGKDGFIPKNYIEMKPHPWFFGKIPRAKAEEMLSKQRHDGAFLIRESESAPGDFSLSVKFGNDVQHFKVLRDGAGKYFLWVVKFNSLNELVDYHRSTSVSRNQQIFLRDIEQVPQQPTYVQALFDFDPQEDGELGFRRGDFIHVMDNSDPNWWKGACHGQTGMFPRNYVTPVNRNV
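Throughout, for SH2 binding enrichment of the phosphorylated peptide, bacterial display: peptide library displayed on the E. coli surface as eCPX fusions, selected cells deep-sequenced, score is each peptide's frequency after selection divided by its frequency in the input.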
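Throughout, for phosphorylation enrichment, bacterial display: 11-residue human phosphosite peptides and single-mutation variants displayed on the E. coli surface, counted by deep sequencing, each peptide's frequency after selection divided by its frequency in the unselected input library; frequency after pTyr selection over input frequency; kinase dosed for 20-30% of maximal phosphorylation in three min.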

Chain of FGFR3 (P22607 whole entry, looked up): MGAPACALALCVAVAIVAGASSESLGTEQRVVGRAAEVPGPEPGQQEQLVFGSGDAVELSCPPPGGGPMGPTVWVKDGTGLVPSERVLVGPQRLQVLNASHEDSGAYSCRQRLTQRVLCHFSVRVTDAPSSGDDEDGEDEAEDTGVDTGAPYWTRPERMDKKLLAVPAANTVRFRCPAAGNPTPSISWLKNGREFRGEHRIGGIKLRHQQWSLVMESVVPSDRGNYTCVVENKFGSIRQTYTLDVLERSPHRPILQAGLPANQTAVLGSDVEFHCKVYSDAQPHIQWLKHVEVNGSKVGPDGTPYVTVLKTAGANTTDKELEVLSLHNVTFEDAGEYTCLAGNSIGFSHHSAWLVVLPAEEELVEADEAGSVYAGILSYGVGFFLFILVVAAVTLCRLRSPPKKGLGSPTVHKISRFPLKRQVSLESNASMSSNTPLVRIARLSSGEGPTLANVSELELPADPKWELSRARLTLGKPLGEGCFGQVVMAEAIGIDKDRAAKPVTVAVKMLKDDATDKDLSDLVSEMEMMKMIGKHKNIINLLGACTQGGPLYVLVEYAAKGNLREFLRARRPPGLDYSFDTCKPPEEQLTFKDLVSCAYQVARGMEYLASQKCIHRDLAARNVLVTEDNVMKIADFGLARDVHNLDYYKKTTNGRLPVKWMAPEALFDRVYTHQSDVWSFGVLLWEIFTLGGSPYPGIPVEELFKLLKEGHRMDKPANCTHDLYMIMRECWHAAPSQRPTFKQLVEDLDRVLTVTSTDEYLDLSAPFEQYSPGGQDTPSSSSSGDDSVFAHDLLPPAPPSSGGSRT
Chain of Fes (P07332 whole entry, looked up): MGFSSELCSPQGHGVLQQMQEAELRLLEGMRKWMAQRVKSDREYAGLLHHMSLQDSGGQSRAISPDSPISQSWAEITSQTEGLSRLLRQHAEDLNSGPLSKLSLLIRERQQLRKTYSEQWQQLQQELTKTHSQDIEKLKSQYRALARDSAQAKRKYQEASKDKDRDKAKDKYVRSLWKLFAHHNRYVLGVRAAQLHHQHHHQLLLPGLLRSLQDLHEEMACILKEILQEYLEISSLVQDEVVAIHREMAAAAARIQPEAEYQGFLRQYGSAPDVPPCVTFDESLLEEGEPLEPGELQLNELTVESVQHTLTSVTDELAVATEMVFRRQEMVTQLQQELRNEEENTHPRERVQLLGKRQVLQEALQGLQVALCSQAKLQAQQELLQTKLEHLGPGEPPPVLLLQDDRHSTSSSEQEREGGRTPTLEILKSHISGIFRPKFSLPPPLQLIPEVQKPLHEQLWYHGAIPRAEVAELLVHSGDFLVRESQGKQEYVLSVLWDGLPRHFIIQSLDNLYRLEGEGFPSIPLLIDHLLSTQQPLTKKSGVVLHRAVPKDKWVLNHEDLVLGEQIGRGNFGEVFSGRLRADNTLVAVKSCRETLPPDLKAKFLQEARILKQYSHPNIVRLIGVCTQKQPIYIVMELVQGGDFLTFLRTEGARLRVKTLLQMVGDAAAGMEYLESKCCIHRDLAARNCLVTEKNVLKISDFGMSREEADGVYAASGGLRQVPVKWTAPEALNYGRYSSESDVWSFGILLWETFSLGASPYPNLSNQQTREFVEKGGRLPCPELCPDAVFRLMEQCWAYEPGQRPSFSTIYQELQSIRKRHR

| Sequence | phosphorylation enrichment (FGFR1) | phosphorylation enrichment (Fes) | phosphorylation enrichment (FGFR3) | phosphorylation enrichment (MERTK) | phosphorylation enrichment (EPHB1) | phosphorylation enrichment (c-Src) | phosphorylation enrichment (Hck) | phosphorylation enrichment (Jak2) | phosphorylation enrichment (Fyn) | phosphorylation enrichment (EPHB2) | phosphorylation enrichment (AncSZ) | phosphorylation enrichment (Fer (mouse)) | phosphorylation enrichment (c-Abl (mouse)) | SH2 binding enrichment (c-Src SH2) | SH2 binding enrichment (SHP2-C SH2) | SH2 binding enrichment (Grb2 SH2) |
| --- | --- | --- | --- | --- | --- | --- | --- | --- | --- | --- | --- | --- | --- | --- | --- | --- |
| HEPKGYNANFC [TGFB2_Y341] | 0.647 | 0.92 | 0.596 | 0.559 | 0.656 | 0.595 | 0.553 | 0.737 | 0.558 | 0.719 | 0.808 | 0.581 | 0.847 | 0.664 | 0.693 | 1.07 |
| LEQQKYTVTVD [IKBKB_Y199] | 0.647 | 1.98 | 1.06 | 0.71 | 0.566 | 0.593 | 0.726 | 0.954 | 0.706 | 0.746 | 1.21 | 0.674 | 0.634 | 0.567 | 0.616 | 0.804 |
| PSSNLYYRCLT [CNGA3_Y168_W171C] | 1.9 | 1.06 | 1.87 | 3.88 | 1.23 | 1.05 | 1.89 | 2.31 | 0.883 | 0.78 | 1.68 | 0.655 | 0.742 | 0.484 | 0.629 | 0.936 |
| DGFIDYAEFAK [MCFD2_Y138_YF] | 0.522 | 1.23 | 0.647 | 0.468 | 0.793 | 0.675 | 0.48 | 1.16 | 0.674 | 0.718 | 1.13 | 0.456 | 0.728 | 0.397 | 0.753 | 0.829 |
| KRISCYEARYQ [PFKFB3_Y194_S197R] | 0.392 | 0.746 | 0.523 | 0.357 | 0.466 | 0.365 | 0.388 | 0.735 | 0.479 | 0.415 | 0.708 | 0.4 | 0.526 | 0.591 | 0.682 | 0.915 |
| IVKAYYVHARA [AIPL1_Y268_R270H] | 0.538 | 0.978 | 0.633 | 0.572 | 0.567 | 0.432 | 0.595 | 0.818 | 0.424 | 0.533 | 0.857 | 0.574 | 0.663 | 0.823 | 1.95 | 1.25 |
| LRRFIYRPPDQ [OTOF_Y1231_R1236Q] | 0.443 | 0.606 | 0.397 | 0.516 | 0.409 | 0.318 | 0.493 | 0.502 | 0.479 | 0.606 | 0.675 | 0.445 | 0.333 | 0.359 | 0.391 | 0.595 |
| KRISCYEARFQ [PFKFB3_Y194_S197R_YF] | 0.344 | 0.845 | 0.496 | 0.395 | 0.398 | 0.497 | 0.425 | 0.647 | 0.382 | 0.476 | 0.669 | 0.399 | 0.728 | 0.64 | 0.941 | 0.999 |
| QLPRGYISILV [BAG3_Y205_P209L] | 0.589 | 1.38 | 0.748 | 0.611 | 0.583 | 0.479 | 0.675 | 1.07 | 0.563 | 0.848 | 1.11 | 0.663 | 0.806 | 0.6 | 0.682 | 1.04 |
| CTTVHYNYMCN [TP53_Y234_I232V] | 0.52 | 0.915 | 0.622 | 0.469 | 0.542 | 0.492 | 0.468 | 0.768 | 0.448 | 0.496 | 0.816 | 0.77 | 0.557 | 6.3 | 3.24 | 1.08 |
| ANARMYGVLPW [PLP1_Y207_D203N] | 0.462 | 0.783 | 0.506 | 0.734 | 0.513 | 3.85 | 6.06 | 0.616 | 4.99 | 0.676 | 0.74 | 0.474 | 0.846 | 0.503 | 0.749 | 0.814 |
| ISGGGYRACPA [FGB_Y71_R74C] | 0.469 | 0.818 | 0.52 | 0.409 | 0.51 | 0.361 | 0.432 | 0.61 | 0.44 | 0.404 | 0.915 | 0.495 | 0.58 | 0.533 | 0.715 | 0.958 |
| PEADKYHLTYA [FGG_Y300_R301H] | 0.665 | 0.985 | 0.771 | 0.742 | 0.51 | 0.915 | 0.701 | 0.908 | 0.608 | 0.592 | 0.685 | 0.282 | 1.15 | 0.655 | 0.704 | 0.561 |
| EFFDGYWEFSV [ITGA2B_Y265_G267E_YF] | 8.09 | 1.55 | 6.69 | 0.631 | 0.709 | 5.58 | 2.29 | 3.11 | 3.4 | 0.577 | 1.98 | 0.515 | 1.19 | 0.494 | 0.515 | 0.674 |
| KYVVVYFREID [IL17RB_Y447] | 0.513 | 1.66 | 0.867 | 0.471 | 0.578 | 0.626 | 0.499 | 1.51 | 0.486 | 0.545 | 1.61 | 0.591 | 1.01 | 1.37 | 2.88 | 1.62 |
| GCRSKHVGLWG [KCNQ1_Y184_Y184H] | 0.36 | 0.481 | 0.388 | 0.397 | 0.316 | 0.359 | 0.328 | 0.409 | 0.385 | 0.314 | 0.518 | 0.325 | 0.516 | 0.86 | 0.906 | 1.17 |
